Measurements published in patent publication US20230227540A1 (ABL BIO, published 2023).
Residue numbers refer to the chain shown, from its start. Values joined by “and” are separate entries in the source; they are usually repeats but may differ in a detail not shown here. Identical values can stand only once.

B1: 10F10 (antibody, IgG2a, V domains shown)
VH: EVQLQESGPGLVKPSQSLSLTCSVTGYSITGGFYWNWIRQFPGNNLEWMGYINYDGSSDYSPSLKNRISITRDTSKNQFFLNLNSVTTEDTATYYCVRGDYDWGQGTTLTVSS
VL: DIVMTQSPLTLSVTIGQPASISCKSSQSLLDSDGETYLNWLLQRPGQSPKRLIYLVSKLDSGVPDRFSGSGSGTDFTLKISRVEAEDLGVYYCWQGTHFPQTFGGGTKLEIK
notes: Only the variable domains are tied to the clone as tested; also called mouse monoclonal anti α-Syn antibody 10F10
B2: DG5 (scFv, V domains shown)
VH: EVQLLESGGGLVQPGGSLRLSCAASGFTFSNYAMSWVRQAPGKGLEWVSVISPGSGNTYYADSVKGRFTISRDNSKNTLYLQMNSLRAEDTAVYYCARVTIACPTKRCSYSNGMDVWGQGTLVTVSS
VL: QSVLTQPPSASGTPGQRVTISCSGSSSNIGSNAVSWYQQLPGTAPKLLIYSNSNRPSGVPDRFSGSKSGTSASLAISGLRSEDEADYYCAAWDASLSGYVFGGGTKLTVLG
notes: Clone from a human scFv phage library; also called ScFV anti α-Syn antibody DG5
B3: AC8 (scFv, V domains shown)
VH: EVQLLESGGGLVQPGGSLRLSCAASGFTFSDYSMSWVRQAPGKGLEWVSGISSGGSSKYYADSVKGRFTISRDNSKNTLYLQMNSLRAEDTAVYYCAKIFHNFDYWGQGTLVTVSS
VL: QSVLTQPPSASGTPGQRVTISCSGSSSNIGSNNVYWYQQLPGTAPKLLIYYDSQRPSGVPDRFSGSKSGTSASLAISGLRSEDEADYYCASWDASLSAYVFGGGTKLTVLG
notes: Clone from a human scFv phage library; The screen used soluble HA-tagged scFv; The dot blot was detected with anti-human Fc-HRP, so an Fc-bearing format may have been used there; also called ScFV anti α-Syn antibody AC8
B4: AD2 (scFv, V domains shown)
VH: B3 VH with D31N, S33A, G50A, S53H, G54S, K98R, I99S, F100G, H101N
VL: B3 VL with S23T, S31N, N33S, Y35S, Y51S, S53N, Q54N, A90G, A98G
notes: Clone from a human scFv phage library; also called ScFV anti α-Syn antibody AD2
B5: DG8 (scFv, V domains shown)
VH: EVQLLESGGGLVQPGGSLRLSCAASGFTFSDHAMSWVRQAPGKGLEWVSVISHGNGSKYYADSVKGRFTISRDNSKNTLYLQMNSLRAEDTAVYYCARVASRCRRGRCSYSDGMDVWGQGTLVTVSS
VL: B3 VL with N33S, Y35S, Y51A, D52N, S53N, Q54N, A90G, S91A, A94S
notes: Clone from a human scFv phage library; also called ScFV anti α-Syn antibody DG8
B6: DG11 (scFv, V domains shown)
VH: B5 VH with H32Y, H53P, N55S, R98K, A100T, S101I, R102S, R104A, G106M, S111A
VL: B3 VL with S23T, N33S, Y35S, Y51A, D52N, Q54N, S91A
notes: Clone from a human scFv phage library; also called ScFV anti α-Syn antibody DG11
B7: AE8 (scFv, V domains shown)
VH: EVQLLESGGGLVQPGGSLRLSCAASGFTFSNYAMSWVRQAPGKGLEWVSAISSGGGNIYYADSVKGRFTISRDNSKNTLYLQMNSLRAEDTAVYYCARRPLYFDYWGQGTLVTVSS
VL: B3 VL with S31N, N33S, Y35N, Y51A, D52N, S53N, Q54N, A90G, S97N, A98G
notes: Clone from a human scFv phage library; also called ScFV anti α-Syn antibody AE8
B8: AA9 (scFv, V domains shown)
VH: EVQLLESGGGLVQPGGSLRLSCAASGFTFSSYSMSWVRQAPGKGLEWVSAIYPGSSNKYYADSVKGRFTISRDNSKNTLYLQMNSLRAEDTAVYYCARHAATFDYWGQGTLVTVSS
VL: B3 VL with N33Y, Y35S, Y51G, S53N, Q54K, A90G, S91A, A94D, A98G
notes: Clone from a human scFv phage library; also called ScFV anti α-Syn antibody AA9
B9: DA9 (scFv, V domains shown)
VH: B2 VH with G54S, S55D, G56S, I101L, A102S, P104R, T105A, K106S
VL: B3 VL with S26P, S31N, N33S, Y35S, Y51A, D52N, Q54H, A90G, S97N, A98G
notes: Clone from a human scFv phage library; also called ScFV anti α-Syn antibody DA9
B10: AD7 (scFv, V domains shown)
VH: B7 VH with N31G, S53P, G54N, I58K, L101V
VL: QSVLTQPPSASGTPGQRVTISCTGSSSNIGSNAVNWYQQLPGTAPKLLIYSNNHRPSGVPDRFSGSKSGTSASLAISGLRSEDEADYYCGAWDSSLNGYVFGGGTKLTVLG
notes: Clone from a human scFv phage library; also called ScFV anti α-Syn antibody AD7
B11: 11F11 (antibody, IgG2b, V domains shown)
VH: EVQLQESGGGLVQPGGSLRLSCATSGFTFSDFYMEWVRQPPGKRLEWIAASRNKANDYTTEYSASVKGRFIVSRDTSQSILYLQMNALRAEDTAIYYCARDAHGKPFAYWGQGTLVTVSA
VL: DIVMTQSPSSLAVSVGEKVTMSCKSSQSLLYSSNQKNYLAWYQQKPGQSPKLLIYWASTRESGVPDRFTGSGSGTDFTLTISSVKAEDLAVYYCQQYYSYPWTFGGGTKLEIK
notes: Only the variable domains are tied to the clone as tested; also called mouse monoclonal anti α-Syn antibody 11F11
B12: 1E4 (antibody, V domains shown)
VH: EVQLQESGAELVRPGTSVKVSCKASGYAFTNYLIEWVKQRPGQGLEWIGVINPGSGGTNYNEKFKGKATLTADKSSSTAYMQLSSLTSDDSAVYFCASGNYDTYWGQGTLVTVSA
VL: DIVMTQSPLSLPVSLGDQASISCRSSQSLVHSNGNTYLHWYLQKPGQSPKLLIYKVSNRFSGVPDRFSGSGSGTDFTLKISRVEAEDLGVYFCSQSTHVPRTFGGGTKLEIK
notes: Antibody purified from a mouse hybridoma, raised against the full-length (140 residues) α-Syn aggregate; Only the variable domains are tied to the clone as tested; also called mouse monoclonal anti α-Syn antibody 1E4
B13: 9B11 (antibody, V domains shown)
VH: EVQLQESGGGLVQPKGSLKLSCAASGFTFNTYAMNWVRQAPGKGLEWVARIRSKSNNYATYYADSVKDRFTISRDDSQSMLYLQMNNLKTEDTAMYYCVRQDFDYWGQGTTLTVSS
VL: B12 VL with R101L, G105A, I111Q
notes: Antibody purified from a mouse hybridoma, raised against the full-length α-Syn aggregate; Only the variable domains are tied to the clone as tested; also called mouse monoclonal anti α-Syn antibody 9B11
B14: 3A9 (antibody, V domains shown)
VH: EVQLQESGGGLVKPGGSLKLSCAASGFTFSSYAMSWVRQTPEKRLEWVATISNGGGYTYYPDSVKGRFTISRDNAKNTLYLQMSSLRSEDTAMYYCARHITTVRPTKYFDYWGQGTTLTVSS
VL: DIVMTQSPKFMSTSVGDRVSITCKASQNVGTTVAWYQQKPGQSPKLLIYSASNRYTGVPDRFTGSGSGTDFTLTISNMQSEDLADYFCQQYSNYPLTFGAGTKLELR
notes: Only the variable domains are tied to the clone as tested; also called mouse monoclonal anti α-Syn antibody 3A9

Each binder was assayed against T1, α-syn aggregate (human, UniProt P37840 1-140) (assay: Octet (BLI), α-syn aggregate (Example 2-6)).
Protocol: Specifically, the running buffer was 1 x KB buffer (cat. 18-1092) or 1 x PBS buffer at 1000 rpm, and the immobilization buffer was sodium acetate, pH 5 (10 mM, Cat 18-1068. α-syn monomers was immobilized the α-syn antigen, and fibrils was immobilized the test antibody. The target concentrations were 20 µg/ml for the monomer and 0.4 µg/ml for the fibril. The kinetics concentration was diluted sequentially two times from 50 nM for monomers and from 100 nM for fibrils, to give 7 points in total, respectively. Association/dissociation time was 5 min / 20 min for monomer and 5 min / 25 min for fibril. Biosensor was ARG2 and fitting was performed using 1: 1 fitting model.
Octet analysis was performed as described in Examples 2-4 using the ScFV anti-Syn antibodies selected in Example 1-2.
In the case of B1, the Kd is reported as 0.81 nM. B2 showed a Kd of 1.26 nM. In the case of B3, the Kd is reported as 0.24 nM. B4 gave a Kd of 1.67 nM. In the case of B5, the Kd is reported as 3.8 nM. B6 gave a Kd of 2.66 nM. For B7, the Kd was 0.39 nM. B8 showed a Kd of 0.88 nM. B9 was tested, and the Kd was 4.31 nM. In the case of B10, the Kd is reported as 0.17 nM. In the case of B11, the Kd is reported as 0.16 nM. B12 was tested, and the Kd was 0.18 nM. Work on B13 yielded a Kd of 0.018 nM. B14 gave a Kd of 0.13 nM.

These binders were tested against α-syn monomer (human, UniProt P37840 1-140) (assay: ELISA (Example 2-2), column Monomers).
In the case of B1, the EC50 is reported as 0.0233 µg/mL and 0.155 nM.

The binders below were run against T1, α-syn aggregate (assay: BIAcore (SPR), 1:1 binding model (Example 2-3), column Fibrils).
Protocol: Quantitative analysis of the binding of alpha-synuclein antibody prepared in Example 1 to monomer and aggregate antigen was performed using BIAcore analysis.
The used instrument was T200 (GE Healthcare, S / N: 1565888). Protein A is used as a chip (GE Healthcare, Cat. 29-1275-56). 10 mM Glycine-HCl pH 1.5 (GE Healthcare, Cat. BR-1003-54) was regeneration buffer. The running buffer, analyte dilution, and the sample dilution buffer were HBS-EP. The α-syn antibodies (3A9, 9B11 and 11F11) prepared in Example 1 were diluted with 1 x HBS-EP (GE Healthcare, Cat. BR-1006-69), and alpha-synuclein monomer (1 mg/ml) and fibril protein (3 mg / ml) were serially diluted in duplicate and analyzed at 6 concentrations (0, 0.39, 1.56, 6.25, 25, 100 nM) including 0 nM in total. For the capture, the monomer was for RU of 800 (theoretical), and a fibril was for RU of 100 (theoretical). The capture phase was performed at contact time of 60 seconds, a flow rate of 30 µl / min, and a stabilization period of 180 seconds. The association phase was performed at the association time of 120 seconds and the flow rate was 30 µl/min. The dissociation phase was performed at the dissociation time of 360 seconds and the flow rate of 30 µl/min. The regeneration phase was performed twice time at the regeneration time of 240 seconds (primary) and 60 seconds (secondary) and a flow rate of 30 µl/min. The fitting was carried out suing 1: 1 binding model, and the evaluation software was BIACore T200 Evaluation software (GE healthcare).
With B11 the Kd was 2.87 nM. B13 showed a Kd of 0.904 nM. Binder B14 has a Kd of 1.32 nM.

The binders below were run against T1, α-syn aggregate (assay: ELISA (Example 2-2), column Fibrils).
Protocol: ELISA analysis was performed to quantitatively analyze the binding affinity of the antibody of the present invention to the antigen. For this, alpha-synuclein antibody of the present invention was coated on a 96-well plate at a concentration of 1 mg/ml and treated with alpha, synuclein fibril aggregates at 10, 100, 1000 and 10,000 ng/ml. After washing with PBS, streptavidin conjugated with HRP and secondary antibody conjugate with biotin was treated and then reacted with TMB as a substrate. The absorbance was measured.
With B1 the EC50 was 0.087 nM and 0.0131 µg/mL. B11 was tested, and the EC50 was 0.327 µg/mL and 2.18 nM. For B12, the EC50 was 0.0245 µg/mL and 0.163 nM. In the case of B13, the EC50 is reported as 0.185 µg/mL and 1.23 nM. With B14 the EC50 was 0.319 µg/mL and 2.13 nM.
